Target: bovine α-thrombin (bovine)
Experiment: SPR

Kd: 1.7 nM
Substance: TMEGF56, fragment of thrombomodulin with the fifth and sixth EGF-like domains (domain or fragment)
